Common to all, as to assay: cell_activity
Series [1] has as its system TALEN 101276 (engineered).
The test system of series [2] is ZFN 29250 (engineered).
Series [3] relates to ZFN 29223 (engineered).
Series [4] has as its system ZFN 29216 (engineered).
Series [5] has as its system TALEN 101267 (engineered). To be noted: pair with 101270, K562, 1600 ng, day 3.
Series [6] deals with TALEN 101286 (engineered). To be noted: pair with 101284, K562, 1600 ng, day 3.
The subject of series [7] is ZFN 30179 (engineered).
In series [8] the test system is ZFN 29251 (engineered).
For series [9], the system named is TALEN 101270 (engineered). To be noted: pair with 101267, K562, 1600 ng, day 3.
Series [10] deals with TALEN 101288 (engineered).
Series [11] has as its system TALEN 101278 (engineered).
The test system of series [12] is TALEN 101271 (engineered). To be noted: pair with 101272, K562, 1600 ng, day 3.
Series [13] has as its system TALEN 101272 (engineered). To be noted: pair with 101271, K562, 1600 ng, day 3.
Series [14] concerns TALEN 101284 (engineered).
Series [15] has as its system TALEN 101282 (engineered). To be noted: pair with 101288, K562, 1600 ng, day 3.

We go through 16 substances from US20130122591.

For the substance “AACTTTTGTTAAATTCCTGATTTTATTTCTGTAGGACTGAGCGGCTTGCTCGAGATGTG (double strand) [canine HPRT region (29250/101276 site)]”, the activity in series [1] (pair with 101278, canine D17, 200 ng, 0 at 100 and 400 ng) turned out to be 2.5 % NHEJ; in [2] (pair with 30179, canine D17, 100 ng), 9.2 % NHEJ.

For “AAGCACTGAATAGAAATAGTGATAGATC (double strand) [29223 site]”, the activity in [3] (pair with 29216, rhesus LLC-MK2, printed as 29233) turned out to be 2.7 % NHEJ.

Consider “ATCTCGAGCAAGACGTTCAGTCCTACAG (double strand) [29250 site]”, for which the activity in [2] (pair with 29251, K562, 800 ng, day 3) turned out to be 69.2 % NHEJ; in [2] (pair with 29251, rhesus LLC-MK2 (sites stated conserved)), 8.2 % NHEJ.

In the case of “ATGTAATCCAGCAGGTCAGCAAAGAATT (double strand) [29216 site]”, the activity in series [4] (pair with 29223 (printed 29233), rhesus LLC-MK2) stood at 2.7 % NHEJ.

“TCCGTTATGGCGAC (double strand) [101267 site]” showed an activity in [5] of 31.8 % NHEJ.

“TCTATCACTATTTCTAT (double strand) [101286 site]” yielded an activity in series [6] of 35.3 % NHEJ.

Regarding “TGATGAAGGAGATGGGAGGCCATCACAT (double strand) [29251/30179 site]”, the activity in series [7] (pair with 29250, rhesus LLC-MK2) amounted to 0 % NHEJ; in series [8] (pair with 29250, K562, 800 ng, day 3), 69.2 % NHEJ; in [8] (pair with 29250, rhesus LLC-MK2 (sites stated conserved)), 8.2 % NHEJ.

Substance “TGCTCACCACGAC (double strand) [101270 site]” returned an activity in [9] of 31.8 % NHEJ.

In the case of “TGGATCTATCACTATTT (double strand) [101288 site]”, the activity in series [10] (pair with 101284, K562, 1600 ng, day 3) stood at 62.2 % NHEJ; in series [10] (pair with 101284, rhesus LLC-MK2), 8.7 % NHEJ.

Take “TGGCCTCCCATCTCCT (double strand) [101278 site]”: the activity in series [11] (pair with 101276, K562, 1600 ng, day 3) came out at 35.3 % NHEJ; in series [11] (pair with 101276, rhesus LLC-MK2) it was 7.6 % NHEJ.

“TGGCGTCGTGGTGAGC (double strand) [101271 site]” had an activity in series [12] of 19.1 % NHEJ.

Substance “TGGGCCTGAACCGGCC (double strand) [101272 site]” returned an activity in series [13] of 19.1 % NHEJ.

For “TGTAGGACTGAACGTCTT (double strand) [101276 site]”, the activity in [1] (pair with 101278, K562, 1600 ng, day 3) turned out to be 35.3 % NHEJ; in series [1] (pair with 101278, rhesus LLC-MK2), 7.6 % NHEJ.

With “TTGCTGACCTGCTGGATT (double strand) [101284 site]”, the activity in series [14] (pair with 101288, K562, 1600 ng, day 3) worked out at 62.2 % NHEJ; in series [14] (pair with 101288, rhesus LLC-MK2), 8.7 % NHEJ.

In series [15], “TTTGCTGACCTGCTGGAT (double strand) [101282 site]” displayed an activity of 46.2 % NHEJ.

As for canine HPRT locus, other sites, the activity amounted to 25.1 % NHEJ in series [10] (pair with 101284, canine D17, 100 ng); 0 % NHEJ in [4] (pair with 29223, canine D17); 9.2 % NHEJ in series [7] (pair with 29250, canine D17, 100 ng); 2.5 % NHEJ in series [11] (pair with 101276, canine D17, 200 ng, 0 at 100 and 400 ng); 2.8 % NHEJ in [8] (pair with 29250, canine D17, 200 ng, 0 at 100 and 400 ng); 25.1 % NHEJ in series [14] (pair with 101288, canine D17, 100 ng). In addition, the activity in series [3] (pair with 29216, canine D17) is 0 % NHEJ.
